Tested on: MS2 coat protein
Assay: apparent KD of MS2 coat protein; designed switch direction (-1 OFF switch, 1 ON switch): -1; higher = weaker reporter binding
Outline: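 Designed RNA switches sharing common flanks were transcribed on Illumina chips by stalled E. coli RNA polymerase. They were titrated with SNAP-549-labelled MS2 coat protein, from 0.7 or 1.5 nM doubling to 3 µM, in Tris-HCl pH 7.5 buffer with KCl, MgCl2, BSA, DTT, tRNA and Tween-20. Titrations ran without input, with 200 uM small-molecule ligand, or with an oligonucleotide input. The apparent KD of each design is the median over its clusters, after curve-fitting of normalised cluster fluorescence.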

[1] = input ligand: microRNA oligo, concentration not stated

| Sequence | apparent KD of MS2 coat protein (input ligand: FMN 200 uM) [nM] | apparent KD of MS2 coat protein [1] [nM] | apparent KD of MS2 coat protein (input ligand: none) [nM] | apparent KD of MS2 coat protein (Eterna round: R95, input ligand: microRNA oligo, concentration not stated) [nM] |
| --- | --- | --- | --- | --- |
| ACAUGAGGAUCACCCAUGUGACCACGAUGGCUGAUGUAGAGCUAGGAUAUGUGUGAAUAUCUAUCACAGAAGGAGCUUGACUGG [Deportation 52 - Jieux - Exclusion NG 3] (Eterna round: R96, puzzle: Exclusion NG 3) | 24.7 | 18.3 | 25.7 |  |
| ACAUGAGGAUCACCCAUGUGCACGUAAUGGCUCAUGUAGAGAGAGGAUAUGUGUGACGAACGAGCACAGAAGGCUCAAGACUGG [Deportation 14 - Jieux - Exclusion NG 3] (Eterna round: R96, puzzle: Exclusion NG 3) | 202 | 133 | 179 |  |
| ACAUGAGGAUCACCCAUGUGCACGUAAUGGCUCAUGUAGAGUGAGGAUAUGCGUGGCGAACUCGCGCAGAAGGCACAAGACUGG [Deportation 19 - Jieux - Exclusion NG 3] (Eterna round: R96, puzzle: Exclusion NG 3) | 88.8 | 65.9 | 82.5 |  |
| ACAUGAGGAUCACCCAUGUGGACGUAAAGGCUCAUGUAGAGUGAGGAUAUGUGAGACGAACGAGAACAGAAGGCACAAGACAGG [Deportation 6 - Jieux - Exclusion NG 3] (Eterna round: R96, puzzle: Exclusion NG 3) | 15.7 | 16.7 | 19.9 |  |
| ACAUGAGGAUCACCCAUGUUCGGCUGGUCCGUCUCGGCUGUCGAGGAUAUAGCUCGGUGUCCGCGCUAGAAGGCGGGAGCUGGC [Aenatbe mod 66] (Eterna round: R96, puzzle: Exclusion NG 3) | 106 | 47 | 90 |  |
| ACAUGAGGCGAAGGAUAUCUUUAGAGGAUUACCAGAGAAGGUCGACAUGAGGAUCACCCAUGUACAUGAGGGUCUUGAAUGUUA [9th something] (Eterna round: R96, puzzle: Exclusion NG 1) | 245 | 199 | 250 |  |
| ACAUGAUACUAGGAUAUCAGCAUACUUCAAUGUUGAGAAGGAGUAACAUGAGGAUCACCCAUGUAUCCAACAUG [Exclusion 6 - 4:b] (puzzle: Exclusion 6) |  |  |  | 43.5 |
| ACAUGUAAUGCAGGAUAUCGGACACAUGAGGAUCACCCAUGUGACCUGAGGUAUUGCUAAGAGUCUGAGAAGGGUAUGUACAUG [Ex NG2 #51] (Eterna round: R96, puzzle: Exclusion NG 2) | 28.7 | 15.7 | 20.4 |  |
| ACAUGUAAUGUAGGAUAUUUUACACAUGAGGAUCACCCAUGUGACCAGAGGCUUUACUAUGAGUAAAAGAAGGGUAUGUACAUG [Ex NG2 #60] (Eterna round: R96, puzzle: Exclusion NG 2) | 69.6 | 33.5 | 54.2 |  |
| ACAUGUCAUCGAGGAUAUUGGACACAUGAGGAUCACCCAUGUACCCGGAGGCUCUACUAUGAGUUCGAGAAGGCGAUGUACAUG [Ex NG2 #74] (Eterna round: R96, puzzle: Exclusion NG 2) | 169 | 19.5 | 25.6 |  |
| ACAUGUGUUGUAGGAUAUAGGAGACAUGAGGAUCACCCAUGUUGAUUCAUGUCUAUGGAAACGUCCUAGAAGGACGACAACAUG [Ex NG2 #20] (Eterna round: R96, puzzle: Exclusion NG 2) | 237 | 111 | 201 |  |
| ACAUGUGUUGUAGGAUAUAGUGGACAUGAGGAUCACCCAUGUUGAUUCAUGUCUAUGGAAACGUACUAGAAGGACGACAAUAUG [Ex NG2 #18] (Eterna round: R96, puzzle: Exclusion NG 2) | 806 | 875 | 1050 |  |
| ACAUUACAUGAGGAUCACCCAUGUGAGGAUAUGGUGCGGUAGUGUCCUGUCGCGUACACCAGAAGGCGCGGGUG [1st #47] (Eterna round: R97, puzzle: Exclusion 1) | 122 |  | 258 |  |
| ACAUUCAGAGGAUAUGCGCAUAGAUAAGACUUUGUUUCUUAACAUGAGGAUCACCCAUGUAGAAGGCUGUACCC [Ex2 #66] (Eterna round: R97, puzzle: Exclusion 2) | 26.6 |  | 20.9 |  |
| ACAUUCAGAGGAUAUGCGCAUAGAUAAGACUUUUUUUUUUAACAUGAGGAUCACCCAUGUAGAAGGCUGUAACC [Ex2 #48] (Eterna round: R97, puzzle: Exclusion 2) | 23.8 |  | 24.3 |  |

From the supplement of paper PMC9170038
